We go through 2 proteins from patent publication US20220017960.

This data set concerns the target FLAG-tagged TRIM25, Q14258.

Substitutions are numbered along the chain they refer to. Names may count otherwise.

FLAG-tagged TRIM25, Q14258, sequence (Q14258 whole entry): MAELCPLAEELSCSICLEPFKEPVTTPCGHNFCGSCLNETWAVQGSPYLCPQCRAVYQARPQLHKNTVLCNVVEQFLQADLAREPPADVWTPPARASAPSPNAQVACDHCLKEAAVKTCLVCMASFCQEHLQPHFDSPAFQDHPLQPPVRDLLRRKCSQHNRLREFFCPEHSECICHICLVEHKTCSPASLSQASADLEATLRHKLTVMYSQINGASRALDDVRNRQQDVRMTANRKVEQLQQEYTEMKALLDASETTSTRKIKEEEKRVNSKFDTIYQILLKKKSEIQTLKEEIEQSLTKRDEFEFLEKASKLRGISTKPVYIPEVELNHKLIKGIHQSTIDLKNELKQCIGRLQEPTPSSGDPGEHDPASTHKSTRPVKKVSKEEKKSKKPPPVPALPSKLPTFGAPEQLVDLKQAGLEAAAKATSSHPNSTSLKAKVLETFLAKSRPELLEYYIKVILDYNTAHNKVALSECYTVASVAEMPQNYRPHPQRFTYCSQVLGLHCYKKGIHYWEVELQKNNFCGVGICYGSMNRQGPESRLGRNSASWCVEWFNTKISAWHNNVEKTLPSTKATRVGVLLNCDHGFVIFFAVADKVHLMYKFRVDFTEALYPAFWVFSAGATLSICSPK

B1: Xpress (Xpr)-tagged human USP15 wild type (WT) (protein)
chain: AEGGAADLDTQRSDIATLLKTSLRKGDTWYLVDSRWFKQWKKYVGFDSWDKYQMGDQNVYPGPIDNSGLLKDGDAQSLKEHLIDELDYILLPTEGWNKLVSWYTLMEGQEPIARKVVEQGMFVKHCKVEVYLTELKLCENGNMNNVVTRRFSKADTIDTIEKEIRKIFSIPDEKETRLWNKYMSNTFEPLNKPDSTIQDAGLYQGQVLVIEQKNEDGTWPRGPSTPNVKNSNYCLPSYTAYKNYDYSEPGRNNEQPGLCGLSNLGNTCFMNSAIQCLSNTPPLTEYFLNDKYQEELNFDNPLGMRGEIAKSYAELIKQMWSGKFSYVTPRAFKTQVGRFAPQFSGYQQQDCQELLAFLLDGLHEDLNRIRKKPYIQLKDADGRPDKVVAEEAWENHLKRNDSIIVDIFHGLFKSTLVCPECAKISVTFDPFCYLTLPLPMKKERTLEVYLVRMDPLTKPMQYKVVVPKIGNILDLCTALSALSGIPADKMIVTDIYNHRFHRIFAMDENLSSIMERDDIYVFEININRTEDTEHVIIPVCLREKFRHSSYTHHTGSSLFGQPFLMAVPRNNTEDKLYNLLLLRMCRYVKISTETEETEGSLHCCKDQNINGNGPNGIHEEGSPSEMETDEPDDESSQDQELPSENENSQSEDSVGGDNDSENGLCTEDTCKGQLTGHKKRLFTFQFNNLGNTDINYIKDDTRHIRFDDRQLRLDERSFLALDWDPDLKKRYFDENAAEDFEKHESVEYKPPKKPFVKLKDCIELFTTKEKLGAEDPWYCPNCKEHQQATKKLDLWSLPPVLVVHLKRFSYSRYMRDKLDTLVDFPINDLDMSEFLINPNAGPCRYNLIAVSNHYGGMGGGHYTAFAKNKDDGKWYYFDDSSVSTASEDQIVSKAAYVLFYQRQDTFSGTGFFPLDRETKGASAATGIPLESDEDSNDNDNDIENENCMHTN
Turning to B1, the “deubiquitination of TRIM25 (anti-FLAG immunoprecipitation, immunoblot with anti-ubiquitin and anti-TRIM25 antibodies)” value is on record as “we observed that TRIM25 is a target for deubiquitination by USP15”.

B2: Xpress (Xpr)-tagged human USP15 mutant (L720R) (protein)
chain: B1 chain with L719R
Turning to B2, the “deubiquitinase activity towards TRIM25 (anti-FLAG immunoprecipitation, immunoblot with anti-ubiquitin and anti-TRIM25 antibodies)” value is listed as “we observed a reduced deubiquitinase activity in the L749R variant (the corresponding human L720R isoform was tested), when compared to WT”.
